From patent US20260092116A1 (DARTSBIO PHARMACEUTICALS, published 2026)

T1: his-tagged human B7H3 antigen protein (human, UniProt Q5ZPR3 29-461, limits assumed)
T1 construct: also called B7H3-his; CD276; not shown: his tag
T1 sequence (looked up): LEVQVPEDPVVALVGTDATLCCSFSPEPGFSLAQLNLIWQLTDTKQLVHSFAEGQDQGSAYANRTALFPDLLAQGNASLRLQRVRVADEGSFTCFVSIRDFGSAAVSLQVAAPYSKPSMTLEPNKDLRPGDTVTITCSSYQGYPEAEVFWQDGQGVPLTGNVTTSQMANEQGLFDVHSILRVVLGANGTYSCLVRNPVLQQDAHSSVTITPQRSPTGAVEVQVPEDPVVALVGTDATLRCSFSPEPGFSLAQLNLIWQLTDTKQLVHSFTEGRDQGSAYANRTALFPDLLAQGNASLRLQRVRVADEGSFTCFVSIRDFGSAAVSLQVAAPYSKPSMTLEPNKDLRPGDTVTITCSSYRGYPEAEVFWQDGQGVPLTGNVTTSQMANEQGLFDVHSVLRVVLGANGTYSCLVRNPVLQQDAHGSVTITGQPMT

T2: B7H3 antigen (huB7H3 antigen) (human, UniProt Q5ZPR3 29-461, limits assumed)
T2 sequence (looked up): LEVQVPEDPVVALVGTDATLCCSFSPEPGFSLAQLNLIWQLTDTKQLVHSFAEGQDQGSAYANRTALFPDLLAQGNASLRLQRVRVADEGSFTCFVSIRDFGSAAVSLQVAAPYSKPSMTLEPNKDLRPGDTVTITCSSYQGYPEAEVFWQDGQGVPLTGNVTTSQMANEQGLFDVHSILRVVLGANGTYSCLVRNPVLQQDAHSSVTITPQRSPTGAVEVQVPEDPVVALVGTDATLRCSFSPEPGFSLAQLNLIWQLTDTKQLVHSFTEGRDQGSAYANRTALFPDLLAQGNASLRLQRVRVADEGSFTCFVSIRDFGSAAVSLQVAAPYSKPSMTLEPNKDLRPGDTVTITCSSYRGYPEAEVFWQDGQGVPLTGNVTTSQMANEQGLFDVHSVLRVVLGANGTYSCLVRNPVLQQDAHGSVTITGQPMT


Assays:
[1] = target: T1, his-tagged human B7H3 antigen protein; test: binding ELISA, plate coated with his-tagged B7H3 at 2 ug/ml
Procedure: (§1) A 96-well ELISA plate was coated with 2 μg/ml of his-tagged PDL1 or B7H3 antigen protein at 4° C. overnight, and 100 μl of Casein blocking solution was added to each well the next day for blocking at 37° C. for 1 hour. […] After incubation at 37° C. for 1 hour, unbound antibodies were washed off with 0.1% PBST, and bound antibodies were detected using horseradish peroxidase (HRP)-conjugated goat anti-human IgG (H+L) antibody (Jackson ImmunoResearch, USA), and 50 μl of 3,3′,5,5′-tetramethylbenzidine substrate (TMB) was used for color development. After standing for 5 minutes, 50 μl of 2 M sulfuric acid was added to stop the color development, and then the absorbance was detected using a SpectraMax M5e (Molecular Devices) microplate reader at OD450 nm. The antibody concentration was plotted against the OD450 reading using a 4-parameter fitting method, and the EC₅₀ was calculated.

[2] = target: T2, B7H3 antigen (huB7H3 antigen); test: BLI, VHH-Fc (100 nM) captured on Protein A probe, B7H3 antigen from 200 nM in 2-fold dilutions
Procedure: The above phage clones were sequenced to obtain the B7H3 VHH gene sequence, and its C-terminus was fused with the human Fc protein gene to construct and express B7H3-Fc. 100nM of B7H3 VHH-Fc was captured by the biolayer interferometry method using the Protein A probe and bound to B7H3 antigen with an initial concentration of 200 nM, a 2-fold dilution. The KD value of the antibody binding to antigen was calculated.

[3] = target: T1, his-tagged human B7H3 antigen protein; test: BLI (Octet), antibody on Protein A probe, B7H3-his from 200 nM in 2-fold dilutions
Procedure: (§2) Kon and Koff values were calculated using the software provided by the supplier to obtain the KD value of the antibody.

[4] = target: T3, his-tagged human PDL1 antigen protein (human, UniProt Q9NZQ7 19-238); test: binding ELISA, plate coated with his-tagged PDL1 at 2 ug/ml
T3 construct: also called PDL1-his; not shown: his tag
Procedure: as §1

[5] = target: T3, his-tagged human PDL1 antigen protein; test: BLI (Octet), antibody on Protein A probe, PDL1-his from 200 nM in 2-fold dilutions
Procedure: as §2

[6] = target: T3, his-tagged human PDL1 antigen protein; test: ELISA on coated PDL1-his, bispecific antibody after 1 hour at 60°C
Procedure: as §1

[7] = target: T3, his-tagged human PDL1 antigen protein; test: ELISA on coated PDL1-his, bispecific antibody not heat-treated (4°C)
Procedure: as §1

[8] = target: T4, biotinylated PDL1 antigen (human, UniProt Q9NZQ7 19-238, biotinylated (sites not given)); test: flow cytometry, blocking of biotinylated PDL1 (50 nM) binding to CHO-PD1 cells
T4 construct: also called human PDL1 (biotinylated)
Procedure: The mixed solution was then incubated with the cells at 4° C. for 45 minutes, and unbound antigens were washed off with PBS.
The cells were then fluorescently stained with PE-streptavidin. Finally, the mean fluorescence intensity (MFI) of the PE channel in the flow cytometer was read, the antibody concentration was plotted against MFI, and the IC₅₀ of the antibody was calculated using a four-parameter fitting.

[9] = target: T1, his-tagged human B7H3 antigen protein; test: ELISA on coated B7H3-his, bispecific antibody not heat-treated (4°C)
Procedure: as §1

[10] = target: T1, his-tagged human B7H3 antigen protein; test: ELISA on coated B7H3-his, bispecific antibody after 1 hour at 60°C
Procedure: as §1

T3 sequence (Q9NZQ7 19-238 limits assumed): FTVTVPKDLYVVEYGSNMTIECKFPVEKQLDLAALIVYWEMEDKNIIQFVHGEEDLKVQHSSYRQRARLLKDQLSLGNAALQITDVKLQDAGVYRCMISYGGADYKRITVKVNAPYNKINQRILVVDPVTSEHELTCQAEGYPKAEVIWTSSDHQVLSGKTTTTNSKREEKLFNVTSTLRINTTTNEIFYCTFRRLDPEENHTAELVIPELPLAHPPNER
T4 sequence (Q9NZQ7 19-238 limits assumed): as above

Row | EC50 [1] [nM] | Kd [2] [nM] | Kd [3] [nM] | EC50 [4] [nM] | Kd [5] [nM] | EC50 (read off the curve) [6] [nM] | EC50 (read off the curve) [7] [nM] | IC50 [8] [nM] | EC50 (read off the curve) [9] [nM] | EC50 (read off the curve) [10] [nM] | Binder
1 | 0.0251 | 3.24 | – | – | – | – | – | – | – | – | B7H3 VHH-Fc (humanized anti-B7H3 VHH 75-16 fused to human Fc) (Fc fusion, also called B7H3-Fc; not shown: human Fc fused to the C-terminus of the VHH) DVQLQESGGGLVQAGGSLRLSCTASGYTLSTIWIGWFRQAPGKGLEGVAAIYIGSGATYYVDSVKGRFTISQDNAKNTVYLQMNSLKPEDTAMYYCAATGGTVGSMVRFSPVGDFGYWGQGTQVTVSS
2 | 0.0411 | – | 8.11 | 0.306 | 0.585 | ~0.04 | ~0.04 | 106 | ~0.02 | ~0.02 | B7H3/PDL1 bispecific antibody (bispecific antibody, human IgG1, kappa, Anti-PDL1 hIgG1 with one anti-B7H3 VHH (75-16) at the C-terminus of each heavy chain's Fc; also called IgG-VHH2) heavy: not shown light: DIQMTQSPSSLSASVGDRVTISCRASQSINTYLHWYQQKLGQAPRLLIYYASQSISGVPSRFSGSGSGTDFTLTINSLEAEDAATYYCQNGHSFPLTFGAGTKVEIKRTVAAPSVFIFPPSDEQLKSGTASVVCLLNNFYPREAKVQWKVDNALQSGNSQESVTEQDSKDSTYSLSSTLTLSKADYEKHKVYACEVTHQGLSSPVTKSFNRGEC
3 | 0.0548 | – | – | – | – | – | – | – | – | – | Enoblituzumab (MGA271) (antibody, V domains shown) VH: EVQLVESGGGLVQPGGSLRLSCAASGFTFSSFGMHWVRQAPGKGLEWVAYISSDSSAIYYADTVKGRFTISRDNAKNSLYLQMNSLRDEDTAVYYCGRGRENIYYGSRLDYWGQGTTVTVSS VL: DIQLTQSPSFLSASVGDRVTITCKASQNVDTNVAWYQQKPGKAPKALIYSASYRYSGVPSRFSGSGSGTDFTLTISSLQPEDFATYYCQQYNNYPFTFGQGTKLEIKR
4 | – | – | – | 0.441 | – | – | – | 94.2 | – | – | PDL1 monoclonal antibody (antibody, human IgG1, kappa, V domains shown, Parental humanized IgG1 of the bispecific antibody; also called PDL1 hIgG1 humanized monoclonal antibody) VH: QVQLVQSGAEVKKPGASVKVSCKASGYTFTTFGVHWVRQAPGKGLEWVGIIWPGGNTNYNSALMSRVTITADESTSTAYMELSSLRSEDTAVYYCARENYGRAMDYWGQGTTVTVSS VL: DIQMTQSPSSLSASVGDRVTISCRASQSINTYLHWYQQKLGQAPRLLIYYASQSISGVPSRFSGSGSGTDFTLTINSLEAEDAATYYCQNGHSFPLTFGAGTKVEIKR
